In a protein production outcome set (Wang et al. 2014):

Assay: label from the status in PepcDB records
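Note: failed if final PepcDB status was selected cloned or expressed and not failed if soluble or beyond.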

Row | Sequence | protein production
1 | MVDDIFERGSKGSSDFFTGNVWVKMLVTDENGVFNTQVYDVVFEPGARTHWHSHPGGQILIVTRGKGFYQERGKPARILKKGDVVEIPPNVVHWHGAAPDEELVHIGISTQVHLGPAEWLGSVTEEEYRKATEGK | not failed
2 | MAQKMTGALVFDERTDRYDIRFDLNSYYGGLHCGECFDVFVRGKWKPTRIEYGDNWYLVGIRAEDLNGLRVRI | failed
3 | MELWTHPTPAAPRLATSTRTRWRRTSRCSQPWATTPGTNSSDASRTPTTASASATSKPQSASARARSVRRSPDCTPRAWSRGARKDRGATTNRPRRPKFCSKRSTTCEATMSNDNETMVADRDPEETREMVRERYAGIATSGQDCCGDVGLDVSGDGGCCSDETEASGSERLGYDADDVASVADGADLGLGCGNPKAFAAMAPGETVLDLGSGAGFDCFLAAQEVGPDGHVIGVDMTPEMISKARENVAKNDAENVEFRLGEIGHLPVADESVNVVISNCVVNLAPEKQRVFDDTYRVLRPGGRVAISDVVQTAPFPDDVQMDPDSLTGCVAGASTVDDLKAMLDEAGFEAVEIAPKDESTEFISDWDADRDLGEYLVSATIEARKPARDD | failed
4 | MALNLKQRLEQKFEEEIRFFKGMVSQPKKVGAIVPTSSITAKKMASVINPHSGLPVLELGPGTGVITKAILARGIKPESLTAIEYSTDFYNQLLRSYPGVNFVNGDAFDLDATLGEHKGQMFDSVISAVPMLNFPMAARIKLLDELLKRVPHGRPVVQISYGPISPIVAQPHLYHIRHFDFIVRNIPPAQLWTYTRALEHHHHHH | failed
5 | MLLRKGTVYVLVIRADLVNAMVAHARRDHPDEACGVLAGPEGSDRPERHIPMTNAERSPTFYRLDSGEQLKVWRAMEDADEVPVVIYHSHTATEAYPSRTDVKLATEPDAHYVLVSTRDPHRHELRSYRIVDGAVTEEPVNVVEQYLEHHHHHH | failed
6 | MAGNFDSEERSSWYWGRLSRQEAVALLQGQRHGVFLVRDSSTSPGDYVLSVSENSRVSHYIINSSGPRPPVPPSPAQPPPGVSPSRLRIGDQEFDSLPALLEFYKIHYLDTTTLIEPVSRSRQGSGVILRQEEAEYVRALFDFNGNDEEDLPFKKGDILRIRDKPEEQWWNAEDSEGKRGMIPVPYVEKYRPASASVSALIGGNQEGSHPQPLGGPEPGPYAQPSVNTPLPNLQNGPIYARVIQKRVPNAYDKTALALEVGELVKVTKINVSGQWEGECNGKRGHFPFTHVRLLDQQNPDEDFS | failed
7 | VAEVPEEHKSKDGNTTVGYVIFFYTYSTWKGRTVYMEDLYVMPEFRGNGIGKALLGAVAKEAKDQLCSRLQFSVLDWNKPSLDFYMAKGAEDLTAKEGWHFLRFHGMALDNLAQEAP | failed
8 | VPPDTLHSLPKSQVKRQEVISELLVTEAAHVRMLRVLHDLFFQPMAECLFFPLEELQNIFPSLDELIEVHSLFLDRLMKRRQESGYLIEEIGDVLLARFDGAEGSWFQKISSRFCSRQSFALEQLKAKQRKDPRFCAFVQEAESRPRCRRLQLKDMIPTEMQRLTKYPLLLQSIGQNTEEPTEREKVELAAECCREILHHVNQAVRDMEDLLRLKDYQRRLDLSHLRQSSDPMLSEFKNLDITKKKLVHEGPLTWRVTKDKAVEVHV | failed
9 | MFQPLLDAFIESASIEKMVSKSPPPPLKIAVANWWGDEEIKEFKKSVLYFILSQRYAITLHQNPNESSDLVFSNPLGAARKILSYQNTKRVFYTGENESPNFNLFDYAIGFDELDFNDRYLRMPLYYAHLHYEAELVNDTTAPYKLKDNSLYALKKPSHHFKENHPNLCAVVNDESDLLKRGFASFVASNANAPMRNAFYDALNSIEPVTGGGSVRNTLGYKVGNKSEFLSQYKFNLCFENSQGYGYVTEKILDAYFSHTIPIYWGSPSVAKDFNPKSFVNVHDFNNFDEAIDYIKYLHTHPNAYLDMLYENPLNTLDGKAYFYQDLSFKKILDFFKTILENDTIYHNNPFIFYRDLHEPLISIDDLRVNYDDLRVNYDDLRVNYDDLRVNYDDLRVNYDDLRVNYDDLRVNYDDLRVNYDDLRVNYDDLRVNYDRLLQNASPLLELSQNTTFKIYRKAYQKSLPLLRTIRRWVKK | failed
10 | NYDPFVRHSVTVKADRKTAFKTFLEGFPEWWPNNFRTTKVGAPLGVDKKGGRWYEIDEQGEEHTFGLIRKVDEPDTLVIGWRLNGFGRIDPDNSSEFTVTFVADGQKKTRVDVEHTHFDRMGTKHAKRVRNGMDKGWPTILQSFQDKIDEEGAKK | not failed
11 | MNLLVIGGHERMEKDYMVMAKKKGYKTKVYTTMSSKLNNSIGRPDAVVILTSTVSHKMSRTVESQAKKQDILIVRHKNSSKVAFNECLDMVDECLGNCSKCKLKDKQKQKNILEHHHHHH | failed
12 | MSHPFEGLPTTPTAEELVDKAFSRASRAGGAKDGNEAQQSMLMTASNIASDNMENVVTAWPTIDDLDPFYVELADAVVGEAYPADDDPGIDALKQHLSEISWAADKVVEIRQEYESRVARGDIDTARKLRKQAFARIADVVEEVEDDLAAISTAHNALKDIPDIRPNEPAIVVAGYPNVGKSSFVNRVTRADNEIASYPFTTTQIRVGHFEDQRIRYQLVDTPGLLDRPPEDRNEIESQAVSALEHLADAVLVFIDPSGECGYPLADQLELRNAIEARFDVPVLTIANKSDLSTDVEADHYMSVTEDDNVDGVLQAAIDAVDYELELPFDE | failed
13 | MGSSHHHHHHSSGLVPRGSPQQLVERLQEEKRIEAQKRKERQEAHLYMQVQIVAEDQFCGHQGNDMYDEEKVKYTVFKVLKNSSLAEFVQSLSQTMGFPQDQIRLWPMQARSNGTKRPAMLDNEADGNKTMIELSDNENPWTIFLET | not failed
14 | WILWSLTKISNHQEINEIIDQILQLTSDVFAADYTSVSFINNQQIARTISYYKFGKKEENISFSLINTPCAKVIQTKAICYFNDVQKQFPNDKLLKKMKINTYLAGPITNTQDEVIGIMTILCKRKVEFDTLNNTLFGLFLSRINSEIERLINLRKLE | failed
15 | MFAERRMNVQKKLKIMAARDRNRFRPLFEGDEEVDMLYLNCNVASRPSLSCDGLVCIPIPGWINVLNPSTGEFLRFSSGRDPRLINDFECVDSKFDVFPGFWTMGFGRDNVNGSYKIVRMLFDRHFENRYCQILDVNIGEWRKQRQPPYFVGYREKSACVNGSIYWSQALIRCKLLAFDLYSEEFRDVPTPPRSEICERSCQIVNLEDRLVLAVTYTTSLHWNVKIWSMDAHDGTRSITYSIRLFSKDMNSSIMNHFQLWFWTRPLAVSKRGNLFFHDNEKRL | failed
16 | MKKFKLSSFLPLSYILLLVLVSPLYDVLNKSTVHAVDVTTVVDDWIPFVKAFIIPYLLWFPYLYGALIYYCFADRKQYYVTLSSVIFGKLACFSIYYFWQTTVPRPTVVGTDVFSELVRYIYSIDQPVNCFPSIHVLTTFVIMLAAFKRREQHAFEYYILTFFGTLIILSTLFTKQHAFLDAVSGMTLASILYFGVQLLLAKEPIKVPVKQNHKM | failed
17 | MDTRKLLLTAQEISRMKGEHKVHFLNPGAVRVNKSLGDAVGLRHMGIHLIQIEPGKESTEYHLHHYEEEAVYVLSGKGTLTMENDQYPIAPGDFVGFPCHAAAHSISNDGTETLVCLVIGQRLDQDVVDYPNQHKRLYRNNGEWNLVDMADIRVLREPTQK | not failed
18 | MEEGKMDENEWGYHGEGNKSLVVAHAQRCVVLRFLKFPPNRKKTSEEIFQHLQNIVDFGKNVMKEFLGENYVHYGEVVQLPLEFVKQLCLKIQSERPESRCDKDLDTLSGYAMCLPNLTRLQTYRFAEHRPILCVEIKPKCGFIPFSSDVTHEMKHKVCRYCMHQHLKVATGKWKQISKYCPLDLYSGNKQRMHFALKSLLQEAQNNLKIFKNGELIYGCKDARSPVADWSELAHHLKPFFFPSNGLASGPHCTRAVIRELVHVITRVLLSGSDKGRAGTLSPGLGPQGPRVCEASPFSRSLRCQGKNTPERSGLPKGCLLYKTLQVQMLDLLDIEGLYPLYNRVERYLEEFPEERKTLQIDGPYDEAFYQKLLDLSTEDDGTVAFALTKVQQYRVAMTAKDCSIMIALSPCLQDASSDQRPVVPSSRSRFAFSVSVLDLDLKPYESIPHQYKLDGKIVNYYSKTVRAKDNAVMSTRFKESEDCTLVLHKV | failed
19 | MESFSSKSLALQAEKKLLSKMAGRSVAHLFIDETSSEVLDELYRVSKEYTHSRPQAQRVIKDLIKVAIKVAVLHRNGSFGPSELALATRFRQKLRQGAMTALSFGEVDFTFEAAVLAGLLTECRDVLLELVEHHLTPKSHGRIRHVFDHFSDPGLLTALYGPDFTQHLGKICDGLRKLLDEGKL | failed
20 | MRARRRVMAKREALRAGSKASRQATPNSQPELEGKLFAEQDAGERTHEKLVFVPRVDIYETETGLVVVADLPGVGPEGLEVTLEKRVLSIYGRVKEDTPEGYSQAYREYEVGDFERQFTLSGDFEINGIEANIKDGVLHLAIPRAPEAAAKRIEVRSVS | failed
21 | MIDNIIRKKWMLKHVRVIVPLLVLLFSLLLTVFVVYTAYSLQLRHNRTLLENLADRQTMALQQFVDGDIHFIGSAANFFRSSTSDDWVRFHTFAEETLKGSQSLIALQWLVKVEPPQAETFTARMQQRFPEFTLYTVPKTGEIKYGFGTDDQAKYVLSDIYPLNYDNRKLLGFYSERERFKRILADIVVNRRPNVSDKVRLLQDGIDKSIVKDGMLVYHPVFSSEDDRSLLGVMVGVVRLSTYFEKLVQISVMEQDLDMRVIDTGFDSEDSPVLYQSPMWRADDEPKIERKLVLPNRDWVLEFELHQPINHSEEWVLLGLGLGGVIISLLLSYIMRMQLEEKQRLTDMIEERTAELRYLVEHDSLTNIYNRRFFSQHLCKMLDEKQSFTLISFDIDRFKQINDSYGHLAGDYALTHVVDVVKKELVESDIFARFGGDEFAILSSVTDETALYTYLERIRKVVEAEPVMLNAETPLTLTISIGASINCEYSEPEILQSVDDQLYLSKSKGRNRVSIAHNAAR | failed
22 | MSETAIQTKTQARQRKVFAHHHVQHYRSQLERRISHSPQFREGKVINAMPHITATPSWWQTAWSYFGGRAQLKPNAQLPVAPLNLQALQTRSKALRVTWLGHSSLFIEVDGLRVLTDPVFDYASPWIAKAWFARNLPNSGVREQLPLPDVIVISHDHYDHLEQASVVYYAAHSVTFYVPLGVGQHLIRWGVSPERIIEFDWWEQIKREGVEFICTPANHNSGRYYLDHNATLWCSWVIKGHQETLYFSGDSAYDTHFAKIAERCGPIDLACLEVAADVKQHQGYPVENWGHMQAKHTVQAFRDLQAKKLLPIHWATYELFTHQWDEPIADLVKHCQEQSITLLTPMAGESLTMANHSASHAWWQGLETEPMSGARYWQMGLACSLLLLLMVV | failed
23 | MDVSFEFEHYQVRLIKSSDAVTIANYFMRNRHHLAPWEPKRSHAFFTPEGWKQRLLQLVELHKHNLAFYFVVVDKNEHKIIGTVSYSNITRFPFHAGHVGYSLDSEYQGKGIMRRAVNVTIDWMFKAQNLHRIMAAYIPRNEKSAKVLAALGFVKEGEAKKYLYINGAWEDHILTSKINDDWKPE | failed
24 | MDVFSEYLAGIADPFHRERTEEVLTWIKNKYPNLHTEIKWNQPMFTDHGTFIIGFSVSKKHLAVAPEKVTIAHVEDDIVKAGYDYTEQLIRIPWNGPVDYTLLEKMIEFNILDKADCSTFWRK | not failed
25 | MPIAGIPYTEIVMAIVAFVLGFLVGYLIKNVIKIGIIVLAIIVILIAIGVVSPHTVVSGLQSMGVYATQAEQYVSRIINYLPYNSILFIIGFVIGLVKG | failed
26 | MVVKMIEKYVEFIGEHELDAIFKIAEKIKDLSILHVNSTKAGGGVAEILNRMLPLMKELGLNVDWKVIKGDNEFFNVTKSFHNSLQNGTGNIPDEYFKIYDKWQEINLSEIPLDYDIMFIHDPQPAGLIKFKKGNSNKWIWRCHIDISNPYPPVWNFLRKYISKYDSMIISVPSFGRDDIEIPQFVIPPSIDPLSIKNRDMSETTILRILYKFGINLEKPLITQVSRFDYAKDPLGVIQAYKLAKRHVDIQLLYVGSPATDDPEGEKVYSEVVKASEGDKDIHLLMLPPYSDLEINVFQTASTVVMQKSIKEGFGLTVSEAMWKRKPVIGGNTGGIPLQVINGITGFLVNSPQGASHYIIYLIRNEEIRRRLGTNAREHIRRNFLITRELRDYLMTIVYVANRGLASLNSHESISNHLEHHHHHH | failed
